From PMC4660055

Key:
[1] = target: PmrA (double-substitution W181G/I220D variant), BeF3^−-activated (Klebsiella pneumoniae); experiment: crystal structure; BeF3^−-activated PmrA dimer mixed 1:1 with 25-bp or 26-bp pbgP promoter DNA in 20 mM Tris-HCl pH 8.0, 100 mM NaCl, 2.65 mM BeF3^−; three copies of the complex (complex-1, -2, -3) in two crystal forms
WT-PmrA = target: T1, WT-PmrA (Klebsiella pneumoniae, UniProt W9BNR5 1-223); experiment: fluorescence polarization; BeF3-, Mg2+ (activation); FP: 10 mM sodium phosphate, 15 mM NaCl, pH 7.0, 298 K, 6 nM FAM-DNA; proteins activated with 5.3 mM BeCl2, 35 mM NaF, 7 mM MgCl2. NMR: 20 mM Tris-HCl, 100 mM Na
T1 sequence: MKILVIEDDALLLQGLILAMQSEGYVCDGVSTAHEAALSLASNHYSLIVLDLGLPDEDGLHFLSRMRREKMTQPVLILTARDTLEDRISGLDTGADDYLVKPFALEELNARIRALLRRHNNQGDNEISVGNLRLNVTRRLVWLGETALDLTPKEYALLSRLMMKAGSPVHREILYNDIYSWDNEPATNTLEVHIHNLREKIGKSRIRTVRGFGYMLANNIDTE

PmrA N196A = target: T2, PmrA N196A (Klebsiella pneumoniae, UniProt W9BNR5 1-223, N196A); experiment: as above
T2 sequence: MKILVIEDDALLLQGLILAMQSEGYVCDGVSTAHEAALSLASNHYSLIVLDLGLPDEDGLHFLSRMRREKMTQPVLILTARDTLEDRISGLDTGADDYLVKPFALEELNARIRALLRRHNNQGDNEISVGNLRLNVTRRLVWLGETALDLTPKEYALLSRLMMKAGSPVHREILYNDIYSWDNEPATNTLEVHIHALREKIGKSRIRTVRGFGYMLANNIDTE

[2] = target: T3, PmrA (double-substitution variant) (Klebsiella pneumoniae, UniProt W9BNR5 1-223, W181G;I220D); experiment: as above
T3 sequence: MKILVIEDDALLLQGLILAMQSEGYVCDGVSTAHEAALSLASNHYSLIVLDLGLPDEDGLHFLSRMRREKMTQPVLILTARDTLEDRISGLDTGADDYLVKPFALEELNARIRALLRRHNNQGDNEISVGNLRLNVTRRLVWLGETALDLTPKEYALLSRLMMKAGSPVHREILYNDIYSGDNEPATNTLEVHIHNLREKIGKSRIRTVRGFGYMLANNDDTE

PmrA R210A = target: T4, PmrA R210A (Klebsiella pneumoniae, UniProt W9BNR5 1-223, R210A); experiment: as above
T4 sequence: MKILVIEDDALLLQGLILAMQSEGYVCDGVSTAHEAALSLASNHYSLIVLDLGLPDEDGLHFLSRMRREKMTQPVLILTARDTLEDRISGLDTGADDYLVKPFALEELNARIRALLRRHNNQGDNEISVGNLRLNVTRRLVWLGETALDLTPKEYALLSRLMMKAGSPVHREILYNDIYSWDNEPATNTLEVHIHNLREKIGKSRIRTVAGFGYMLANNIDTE

PmrA N176A = target: T5, PmrA N176A (Klebsiella pneumoniae, UniProt W9BNR5 1-223, N176A); experiment: as above
T5 sequence: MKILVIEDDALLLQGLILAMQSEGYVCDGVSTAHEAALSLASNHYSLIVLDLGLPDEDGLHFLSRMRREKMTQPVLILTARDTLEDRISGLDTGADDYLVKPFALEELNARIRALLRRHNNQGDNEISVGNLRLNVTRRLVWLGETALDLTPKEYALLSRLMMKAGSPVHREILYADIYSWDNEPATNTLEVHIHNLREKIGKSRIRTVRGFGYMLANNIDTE

PmrA N188A = target: T6, PmrA N188A (Klebsiella pneumoniae, UniProt W9BNR5 1-223, N188A); experiment: as above
T6 sequence: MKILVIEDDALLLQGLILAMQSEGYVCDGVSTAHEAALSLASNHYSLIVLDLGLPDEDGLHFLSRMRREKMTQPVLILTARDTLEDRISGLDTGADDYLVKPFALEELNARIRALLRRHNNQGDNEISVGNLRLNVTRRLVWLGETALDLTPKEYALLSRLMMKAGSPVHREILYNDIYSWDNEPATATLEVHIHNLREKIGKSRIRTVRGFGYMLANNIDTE

[3] = target: T3, PmrA (double-substitution variant); experiment: X-ray crystallography (3.8 A); BeF3-, Mg2+; FP: 10 mM sodium phosphate, 15 mM NaCl, pH 7.0, 298 K, 6 nM FAM-DNA; proteins activated with 5.3 mM BeCl2, 35 mM NaF, 7 mM MgCl2. NMR: 20 mM Tris-HCl, 100 mM Na

PmrA (double-substitution W181G/I220D variant), BeF3^−-activated (natural protein)
stoichiometry N [1]: 2

B1: 25-bp FAM-labelled DNA (FP) (dsDNA)
DNA 1: ATTTCTTAATATTATCCTAAGCAAG
DNA 2: TTGCTTAGGATAATATTAAGAAATC
Kd (WT-PmrA): 194 ± 7.7 nM | Kd (PmrA N196A): 399 ± 10.9 nM | Kd [2]: 201 ± 8.2 nM | Kd (PmrA R210A): 3037 ± 11.7 nM | Kd (PmrA N176A): 365 ± 11.6 nM | Kd (PmrA N188A): 762 ± 12.3 nM

B2: 26-bp pmra box DNA (crystal) (dsDNA)
DNA 1: ATTTCTTAATATTATCCTAAGCAAGG
DNA 2: CTTGCTTAGGATAATATTAAGAAATC
binding result [3]: binds
